The labels stand for the following.
T1: StYeeD (Winmispira thermophila, UniProt G0GAP7)
T1 construct: gene Spith_0735; expressed in E. coli C41(DE3)
T1 sequence (G0GAP7 1-80): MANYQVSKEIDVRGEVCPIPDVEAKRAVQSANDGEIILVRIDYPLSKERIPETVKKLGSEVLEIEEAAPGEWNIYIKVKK

T2: Spirochaeta thermophila YeeE (Spirochaeta thermophila, UniProt G0GAP6 1-328)
T2 construct: YeeE of Spirochaeta thermophila, residues 1-328, UniProt G0GAP6; Membrane protein, kept in 0.1% DDM; The His tag was removed with TEV(S219V) protease; also called StYeeE; TsuA; source: E. coli C41(DE3), purified from the membrane fraction in DDM (Ni-NTA, TEV cleavage, Superdex 200)
T2 sequence (looked up): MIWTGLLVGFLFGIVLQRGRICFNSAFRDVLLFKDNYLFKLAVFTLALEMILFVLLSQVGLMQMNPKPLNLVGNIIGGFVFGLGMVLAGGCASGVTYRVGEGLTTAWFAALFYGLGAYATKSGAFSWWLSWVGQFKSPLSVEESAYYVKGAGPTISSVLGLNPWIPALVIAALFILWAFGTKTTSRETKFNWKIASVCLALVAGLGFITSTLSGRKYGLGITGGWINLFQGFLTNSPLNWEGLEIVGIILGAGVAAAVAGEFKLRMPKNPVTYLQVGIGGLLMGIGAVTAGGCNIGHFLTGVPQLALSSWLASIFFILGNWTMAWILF

B1: StYeeE (Winmispira thermophila DSM 6578) (protein)
chain: MIWTGLLVGFLFGIVLQRGRICFNSAFRDVLLFKDNYLFKLAVFTLALEMILFVLLSQVGLMQMNPKPLNLVGNIIGGFVFGLGMVLAGGCASGVTYRVGEGLTTAWFAALFYGLGAYATKSGAFSWWLSWVGQFKSPLSVEESAYYVKGAGPTISSVLGLNPWIPALVIAALFILWAFGTKTTSRETKFNWKIASVCLALVAGLGFITSTLSGRKYGLGITGGWINLFQGFLTNSPLNWEGLEIVGIILGAGVAAAVAGEFKLRMPKNPVTYLQVGIGGLLMGIGAVTAGGCNIGHFLTGVPQLALSSWLASIFFILGNWTMAWILF
notes: 1-328 aa with C-terminal …-His8, His-tag removed by TEV; expressed in E. coli C41(DE3), purified in DDM, reconstituted in E. coli total lipid liposomes
B2: Spirochaeta thermophila YeeD (WT), His6-tagged (natural protein, UniProt G0GAP7 1-80, looked up)
chain: MANYQVSKEIDVRGEVCPIPDVEAKRAVQSANDGEIILVRIDYPLSKERIPETVKKLGSEVLEIEEAAPGEWNIYIKVKK
notes: YeeD of Spirochaeta thermophila, residues 1-80, UniProt G0GAP7; 11.3 kDa with the tag; As purified, C17 is partly modified (mass spectrometry: -SH, -S-O2-/-S-S-, -S-SO3-); also called StYeeD; StYeeD(WT); source: E. coli C41(DE3), purified (Ni-NTA, Superdex 200)
B3: StYeeD(R49A), His6-tagged (natural protein, Spirochaeta thermophila, UniProt G0GAP7 1-80, looked up)
chain: MANYQVSKEIDVRGEVCPIPDVEAKRAVQSANDGEIILVRIDYPLSKEAIPETVKKLGSEVLEIEEAAPGEWNIYIKVKK
notes: YeeD of Spirochaeta thermophila, residues 1-80, UniProt G0GAP7, with R49A; source: E. coli C41(DE3), purified (Ni-NTA, Superdex 200)
B4: StYeeD(E9A), His6-tagged (natural protein, Spirochaeta thermophila, UniProt G0GAP7 1-80, looked up)
chain: MANYQVSKAIDVRGEVCPIPDVEAKRAVQSANDGEIILVRIDYPLSKERIPETVKKLGSEVLEIEEAAPGEWNIYIKVKK
notes: YeeD of Spirochaeta thermophila, residues 1-80, UniProt G0GAP7, with E9A; source: E. coli C41(DE3), purified (Ni-NTA, Superdex 200)
B5: StYeeD(Y43A), His6-tagged (natural protein, Spirochaeta thermophila, UniProt G0GAP7 1-80, looked up)
chain: MANYQVSKEIDVRGEVCPIPDVEAKRAVQSANDGEIILVRIDAPLSKERIPETVKKLGSEVLEIEEAAPGEWNIYIKVKK
notes: YeeD of Spirochaeta thermophila, residues 1-80, UniProt G0GAP7, with Y43A; source: E. coli C41(DE3), purified (Ni-NTA, Superdex 200)
B6: StYeeD(V39A), His6-tagged (natural protein, Spirochaeta thermophila, UniProt G0GAP7 1-80, looked up)
chain: MANYQVSKEIDVRGEVCPIPDVEAKRAVQSANDGEIILARIDYPLSKERIPETVKKLGSEVLEIEEAAPGEWNIYIKVKK
notes: YeeD of Spirochaeta thermophila, residues 1-80, UniProt G0GAP7, with V39A; source: E. coli C41(DE3), purified (Ni-NTA, Superdex 200)
B7: StYeeD(E48A), His6-tagged (natural protein, Spirochaeta thermophila, UniProt G0GAP7 1-80, looked up)
chain: MANYQVSKEIDVRGEVCPIPDVEAKRAVQSANDGEIILVRIDYPLSKARIPETVKKLGSEVLEIEEAAPGEWNIYIKVKK
notes: YeeD of Spirochaeta thermophila, residues 1-80, UniProt G0GAP7, with E48A; source: E. coli C41(DE3), purified (Ni-NTA, Superdex 200)
B8: StYeeD(V16A), His6-tagged (natural protein, Spirochaeta thermophila, UniProt G0GAP7 1-80, looked up)
chain: MANYQVSKEIDVRGEACPIPDVEAKRAVQSANDGEIILVRIDYPLSKERIPETVKKLGSEVLEIEEAAPGEWNIYIKVKK
notes: YeeD of Spirochaeta thermophila, residues 1-80, UniProt G0GAP7, with V16A; source: E. coli C41(DE3), purified (Ni-NTA, Superdex 200)
B9: StYeeD(E15A), His6-tagged (natural protein, Spirochaeta thermophila, UniProt G0GAP7 1-80, looked up)
chain: MANYQVSKEIDVRGAVCPIPDVEAKRAVQSANDGEIILVRIDYPLSKERIPETVKKLGSEVLEIEEAAPGEWNIYIKVKK
notes: YeeD of Spirochaeta thermophila, residues 1-80, UniProt G0GAP7, with E15A; source: E. coli C41(DE3), purified (Ni-NTA, Superdex 200)
B10: StYeeD(L38A), His6-tagged (natural protein, Spirochaeta thermophila, UniProt G0GAP7 1-80, looked up)
chain: MANYQVSKEIDVRGEVCPIPDVEAKRAVQSANDGEIIAVRIDYPLSKERIPETVKKLGSEVLEIEEAAPGEWNIYIKVKK
notes: YeeD of Spirochaeta thermophila, residues 1-80, UniProt G0GAP7, with L38A; source: E. coli C41(DE3), purified (Ni-NTA, Superdex 200)
B11: StYeeD(K8A), His6-tagged (natural protein, Spirochaeta thermophila, UniProt G0GAP7 1-80, looked up)
chain: MANYQVSAEIDVRGEVCPIPDVEAKRAVQSANDGEIILVRIDYPLSKERIPETVKKLGSEVLEIEEAAPGEWNIYIKVKK
notes: YeeD of Spirochaeta thermophila, residues 1-80, UniProt G0GAP7, with K8A; source: E. coli C41(DE3), purified (Ni-NTA, Superdex 200)
B12: StYeeD(E63A), His6-tagged (natural protein, Spirochaeta thermophila, UniProt G0GAP7 1-80, looked up)
chain: MANYQVSKEIDVRGEVCPIPDVEAKRAVQSANDGEIILVRIDYPLSKERIPETVKKLGSEVLAIEEAAPGEWNIYIKVKK
notes: YeeD of Spirochaeta thermophila, residues 1-80, UniProt G0GAP7, with E63A; source: E. coli C41(DE3), purified (Ni-NTA, Superdex 200)
B13: StYeeD(L45A), His6-tagged (natural protein, Spirochaeta thermophila, UniProt G0GAP7 1-80, looked up)
chain: MANYQVSKEIDVRGEVCPIPDVEAKRAVQSANDGEIILVRIDYPASKERIPETVKKLGSEVLEIEEAAPGEWNIYIKVKK
notes: YeeD of Spirochaeta thermophila, residues 1-80, UniProt G0GAP7, with L45A; source: E. coli C41(DE3), purified (Ni-NTA, Superdex 200)

Substrate in one data set: O=S(O)(O)=S
The data set is described as follows: solid-supported membrane electrophysiology of proteoliposomes, negative peak area. The data set is classed as biochemical, Winmispira thermophila. Conditions: transport, Na2S2O3 1.25-40 mM exchanged against equal Na2SO4, pH 6.7, Michaelis-Menten fit.
By Km is commonly meant the substrate concentration at which the rate is half of its maximum. Consider B1, for which the Km stood at 626.1 µM.

The next data set deals with T1, StYeeD. Nature of the data set: H2S release with fluorescent probe HSip-1; adduct by MALDI-TOF MS. It counts as biochemical. Conditions: 500 μM thiosulfate, 24.1 μM YeeD, 70 μM β-ME, pH 8.0, 37°C; covalent (C17).
Take `O=S(O)(O)=S` [thiosulfate ion]: the “H2S release with fluorescent probe HSip-1; adduct by MALDI-TOF MS” value is on record as “suggesting that YeeD catalyzes the decomposition of thiosulfate as a substrate”.

The target of another data set is T2, Spirochaeta thermophila YeeE. The data set is described as follows: BLI; StYeeD-His6 (4.82 μM) loaded on a Ni-NTA biosensor, 11.05 μM StYeeE in solution; Octet N1, room temperature; 20 mM Tris-HCl pH 8.0, 300 mM NaCl, 0.1% DDM, 1 mM β-ME; 120 s association, 120 s dissociation; local fitting; 3 measurements. WT was also run with 300 mM Na2SO4 (binding similar) or 300 mM Na2S2O3 (binding significantly decreased). Conditions: both partners purified.
As usually defined, the Kd is the equilibrium constant for the complex coming apart. High values mean weaker binding, low ones tighter binding. One may read the koff as the rate constant with which the complex falls apart. Read a low koff as a long-lived complex. The kon is the second-order rate constant of association. Low values mean slower complex formation, high ones faster complex formation. B2 had a Kd of 1.6 ± 0.2 µM, a koff of 0.027 ± 0.0029 s⁻¹ and an on-rate (kon) of 17000 ± 2900 M⁻¹ s⁻¹.
The like results for B3 were, in that order, 17 ± 23 µM, 0.12 ± 0.16 s⁻¹ and 9000 ± 1400 M⁻¹ s⁻¹.
Take B4: the Kd worked out at 4.6 ± 0.22 µM, the koff was determined as 0.027 ± 0.0021 s⁻¹ and the kon amounted to 6000 ± 580 M⁻¹ s⁻¹.
On the same counts, the results for B5 are 20 ± 2.1 µM, 0.16 ± 0.017 s⁻¹ and 8200 ± 950 M⁻¹ s⁻¹.
On the same counts, the results for B6 are 5.4 ± 0.3 µM, 0.032 ± 0.00058 s⁻¹ and 5800 ± 330 M⁻¹ s⁻¹.
In the case of B7, the dissociation constant (Kd) turned out to be 4.5 ± 6.2 µM, the koff worked out at 0.14 ± 0.2 s⁻¹ and the kon came out at 17000 ± 10000 M⁻¹ s⁻¹.
On the same counts, the results for B8 are 5.6 ± 0.86 µM, 0.093 ± 0.023 s⁻¹ and 17000 ± 1600 M⁻¹ s⁻¹.
Regarding B9, the Kd turned out to be 9.5 ± 4.2 µM, the koff amounted to 0.071 ± 0.033 s⁻¹ and the kon stood at 7500 ± 1300 M⁻¹ s⁻¹.
Take B10: the dissociation constant (Kd) came to 1.7 ± 0.055 µM, the koff is 0.032 ± 0.003 s⁻¹ and the kon is 18000 ± 1300 M⁻¹ s⁻¹.
On the same counts, the results for B11 are 4.3 ± 0.61 µM, 0.037 ± 0.0019 s⁻¹ and 8900 ± 1100 M⁻¹ s⁻¹.
On the same counts, the results for B12 are 1.7 ± 0.074 µM, 0.03 ± 0.0013 s⁻¹ and 18000 ± 260 M⁻¹ s⁻¹.
On the same counts, the results for B13 are 1.2 ± 0.1 µM, 0.035 ± 0.004 s⁻¹ and 29000 ± 1600 M⁻¹ s⁻¹.

Another data set concerns the molecule itself. Nature of the data set: SEC; purified His-tagged StYeeD(WT) on Superdex 200 Increase 10/300 GL, 10 mM Tris-HCl pH 8.0, 300 mM NaCl; two peaks compared with gel filtration markers.
Settings: not given
For orientation: SEC sorts molecules by how far they enter the pores of the column.
Broadly, the stoichiometry N is the number of molecules, sites or subunits per partner or assembly. On to B2, for which the “stoichiometry N” value turned out to be 2.

These data come from paper PMC11073785, “YeeD is an essential partner for YeeE-mediated thiosulfate uptake in bacteria and regulates thiosulfate ion decomposition” (PLOS Biology, 2024).
